This passage reports specific activity results from patent publication US20240182408A1, “DRIED PRENCSO COMPOSITION” (HOUSE FOODS GROUP INC., priority 2021, published 2024).

This data set is described as follows: specific activity of LFS. As to conditions: rLFS used in Examples. The format is biochemical.

B1: rLFS: recombinant lachrymatory factor synthase (E2-3) produced in E. coli, GST tag removed (protein, UniProt P59082 13-169, looked up)
Lachrymatory-factor synthase: DSANGARKWSGKVHALLPNTKPEQAWTLLKDFINLHKVMPSLSVCELVEGEANVVGCVRYVKGIMHPIEEEFWAKEKLVALDNKNMSYSYIFTECFTGYEDYTATMQIVEGPEHKGSRFDWSFQCKYIEGMTESAFTEILQHWATEIGQKIEEVCSA
Regarding B1, the specific activity is reported as 6.0×10^6 area/μg.
